Experimental data as given in patent publication US7193055B2, “Compaction assay for assessment of respiratory disease therapy” (Genentech, Inc., priority 1992, dated 2007).
Entries after “also recorded” stand apart in the source; their conditions may differ.

Experiments:
[1] = rhDNase concentration in sputum after inhalation; format: in vivo, human; conditions: inhalation of 10 mg rhDNase; sputum collected one hour after inhalation
[2] = catalytic amounts of rhDNase (Shak et al.); cited from earlier work
[3] = 1 and 4 mg/mL rhDNase solutions, aerosolized (Aitken et al., Hubbard et al.); cited from earlier work
[4] = system: DNA in sputum samples; assay: Agarose gel electrophoresis of DNA length in sputum samples; format: biochemical, human; parameters: dose or concentration left out as unconfirmed; conditions: all six sputum samples; rhDNase, 20 minutes at 25° C.
Protocol: The length of the DNA in sputum samples was determined qualitatively by agarose gel electrophoresis as described by Shak et al., Supra. The effect of freezing on sputum DNA length was studied by electrophoresing samples with and without one cycle of freezing at −70° C. Samples were diluted four-fold in a buffer containing 100 mM NaCl, 5 mM EDTA, 0.5% SDS, 100 μg/ml proteinase K (Sigma), 50 mM Tris, pH 8.0, and incubated for three hours at 37° C. with occasional mixing. Samples were then electrophoresed in 0.5% agarose gels and stained with ethidium bromide by standard procedures (Sambrook, et al., Molecular Cloning: A Laboratory Manual, 2nd ed. Cold Spring Harbor Laboratory Press [1989]). A 1 Kb DNA ladder having 12 major bands between 500 bp to 12 Kb (Gibco/BRL 5615SA) was used as the molecular weight standard.

[5] = system: purulent CF sputum; assay: Dynamic cone and plate rheometry of sputum; parameters: species or system human; conditions: representative sputum sample, over the range of strain tested, FIG. 4
Protocol: Sputum rheological measurements were made at ambient temperature using the Rheometrics Fluid Rheometer (RFR-7800, Rheometrics Inc. Piscataway, N.J.) with a 0.02 radian, 25 mm radius cone and plate tool. Approximately 0.8 ml sputum was placed on the plate with 25 μL of diluent or rhDNase layered onto the top of the sputum. The cone was lowered onto the sample while the bottom plate was slowly rotated at. 5 rpm to evenly distribute the sample across the gap between the cone and plate. Drying at the sample edge was prevented by pipeting 0.1 poise silicon oil (Dow Chemical) onto the exposed edge of the cone. Rotation of the plate was stopped for five minutes to allow the sample to relax. Each preparation was tested at a deformation rate of 10 radians/sec and the percent strain was varied from 10% to 200% in 10% increments. Percent strain is defined as 100 times the distance of the shearing motion divided by the space between the cone and plate of the viscometer. The second strain value, 20% strain, was used for the comparisons between samples and treatments, being the lowest possible strain for accurate measurement. Instrument start-up frequently compromises the first data point and higher strains can damage network structures (Ferry, J Viscoelastic Properties of Polymers. 3rd ed. John Wiley and Sons, Inc. New York pg. 245-[1980]) resulting in artifacts and irreproducible data.

[6] = system: DNA in sputum samples; assay: Total DNA in pellet and supernatant fractions after compaction (DABA assay); format: biochemical, human; conditions: all six samples, FIG. 6
Protocol: Sputum sample DNA content was determined by a modification of the diaminobenzoic acid (DABA) assay developed by Kissane and Robins (J Biol Chem 233: 184–188 (1958]) which quantitates total DNA concentration independent of length. Previously frozen sputum aliquants were diluted tenfold with the assay diluent (25 mM HEPES, 1 mg/ml bovine serum albumin, 4 mM CaCl^2, 4 mM MgCl^2, 0.05% polysorbate 20, and 0.01% thimerasol, at pH 7.5) and incubated at 60° C. for one hour. Diluted specimens (50 μL) were pipeted into microtiter plate wells and 50 μL of a 20% 3,5-diaminobenzoic acid hydrochloride (DABA) solution was added after which the plates were tightly sealed. […] A Cytofluor (Millipore Corp.) microtiter plate flurometer (with 390 nm excitation and 530 nm emission filters) was used to read the plates. […] The coefficient of variation for the assay was determined to be <6%.
Approximately 100 μL of sputum was transferred into a tared Eppendorf microcentrifuge tube with a positive displacement pipet (Gilson Microman®, equipped with a stainless steel shaft and plastic plunger). […] The total height of the material loaded into the capillary tubes and the pellet height were measured in millimeters. The percent pellet was calculated as the height of the pellet divided by the height of the total material loaded, multiplied by 100.

[7] = system: purulent CF sputum; assay: Compaction assay of CF sputum treated in vitro with rhDNase; format: biochemical, human
Protocol: Approximately 100 μL of sputum was transferred into a tared Eppendorf microcentrifuge tube with a positive displacement pipet (Gilson Microman®, equipped with a stainless steel shaft and plastic plunger). Either rhDNase or control diluent was added as volume equaling 50% of the exact sputum sample weight. Eppendorf tubes were vigorously vortexed for 15 seconds and then incubated for 15 minutes at ambient temperature. Aliquants of the treated sputum were loaded into Kimax-51, 1.5−1.8×90 mm melting point capillary tubes (Kimble Products) using 50 μL Drummond glass capillary tube (Microcaps). The loaded tubes were centrifuged for 20 minutes at 12,000 rpm in a Biofuge A microcentrifuge (Heraeus Sepatech GmbH) equipped with a horizontal, hematocrit-type rotor head (Heraeus Sepatech) and the supernatant/pellet interface subsequently inspected for resolution. On occasion some samples required up to 20 additional minutes to resolve the supernatant-pellet interface clearly. In these cases, all samples loaded on the rotor were centrifuged for the greater duration. The total height of the material loaded into the capillary tubes and the pellet height were measured in millimeters. The percent pellet was calculated as the height of the pellet divided by the height of the total material loaded, multiplied by 100.

B1: rhDNase: recombinant human DNase I cloned and expressed at Genentech; used as 4 mg/ml solution in 1 mM CaCl2, 150 mM NaCl, pH 7.4 (protein, UniProt P24855 23-282, looked up)
Deoxyribonuclease-1: LKIAAFNIQTFGETKMSNATLVSYIVQILSRYDIALVQEVRDSHLTAVGKLLDNLNQDAPDTYHYVVSEPLGRNSYKERYLFVYRPDQVSAVDSYYYDDGCEPCGNDTFNREPAIVRFFSRFTEVREFAIVPLHAAPGDAVAEIDALYDVYLDVQEKWGLEDVMLMGDFNAGCSYVRPSQWSSIRLWTSPTFQWLIPDSADTTATPTHCAYDRIVVAGMLLRGAVVPDSALPFNFQAAYGLSDQLAQAISDHYPVEVMLK
- concentrations of rhDNase in sputum [1]: 1 to 20 µg/mL
- viscosity of purulent cystic fibrosis sputum [2]: greatly reduced the viscosity
- pulmonary function in CF patients [3]: increased pulmonary function; also recorded: improved lung function
- DNA size after hydrolysis (complete hydrolysis) [4]: less than 500 base pairs
- effect on elasticity modulus [5]: more greatly affected
- effect on viscosity modulus [5]: reduced measured values of viscosity
- distribution of total DNA between pellet and supernatant following compaction [6]: redistribution of total DNA from the pellet to the supernatant
- concentration above which rhDNase is maximally effective (fit of dose-response curve) ([7]; CF sputum sample, FIG. 7): above 1 μg/ml
- concentration below which rhDNase is minimally effective (fit of dose-response curve) ([7]; CF sputum sample, FIG. 7): below 0.1 μg/ml
- minimum in vitro rhDNase concentration showing activity in the compaction assay ([7]; in vitro, sputum): 1 μg rhDNase/mL sputum
